Patent US20070054848A1 (published 2007)
Blank lines part the entries; values can stand above or below the binder they belong to.

B2: endogenous p75 of mouse post-natal (P9) cerebellum / cerebellar neurons (receptor, UniProt Q9Z0W1 32-427, looked up)
chain: KETCSTGMYTHSGECCKACNLGEGVAQPCGANQTVCEPCLDSVTFSDVVSATEPCKPCTECLGLQSMSAPCVEADDAVCRCSYGYYQDEETGRCEACSVCGVGSGLVFSCQDKQNTVCEECPEGTYSDEANHVDPCLPCTVCEDTERQLRECTPWADAECEEIPGRWITRSTPPEGSDVTTPSTQEPEAPPERDLIASTVADTVTTVMGSSQPVVTRGTADNLIPVYCSILAAVVVGLVAYIAFKRWNSCKQNKQGANSRPVNQTPPPEGEKLHSDSGISVDSQSLHDQQTHTQTASGQALKGDGNLYSSLPLTKREEVEKLLNGDTWRHLAGELGYQPEHIDSFTHEACPVRALLASWGAQDSATLDALLAALRRIQRADIVESLCSESTATSPV
notes: Endogenous protein in lysates; also called p75NTR

Assays:
[1] = target: B2; experiment: figure legend (FIG. 6C): co-immunoprecipitation of p75 and Rho GDI from cerebellar neurons
Protocol: The lysates were centrifuged at 13,000×g for 20 min, and the supernatants were collected. […] The immunocomplex was collected with protein A sepharose (Amersham Pharmacia). The suspension was centrifuged at 1,000×g for 5 min. The pellets were washed 4 times with lysis buffer, and subjected to SDS-PAGE, followed by immunoblot analysis using anti-Rho GDIα antibody (Sigma) or anti-RhoA antibody (Santa Cruz Biotechnology).

[2] = target: T1, Nogo receptor, endogenous in P9 cerebellum (UniProt Q99PI8 27-447); experiment: figure legend (FIG. 11C)
T1 construct: also called NgR; the Nogo receptor
T1 sequence (looked up): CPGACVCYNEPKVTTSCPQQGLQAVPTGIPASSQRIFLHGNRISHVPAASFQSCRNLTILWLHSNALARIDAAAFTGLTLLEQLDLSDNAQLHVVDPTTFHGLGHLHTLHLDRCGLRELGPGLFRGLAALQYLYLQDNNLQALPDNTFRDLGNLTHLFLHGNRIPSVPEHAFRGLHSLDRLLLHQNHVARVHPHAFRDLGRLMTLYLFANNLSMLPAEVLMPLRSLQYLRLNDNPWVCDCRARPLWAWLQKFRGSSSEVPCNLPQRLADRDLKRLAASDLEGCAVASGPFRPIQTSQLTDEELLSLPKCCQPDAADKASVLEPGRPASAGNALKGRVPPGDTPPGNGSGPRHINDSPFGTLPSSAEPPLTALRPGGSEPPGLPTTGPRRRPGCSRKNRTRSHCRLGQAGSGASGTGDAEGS

[3] = target: T2, amino-terminally FLAG-tagged human p75 (human, UniProt P08138 29-427); experiment: co-precipitation: p75 precipitated from transfected 293T cells (anti-FLAG, protein A sepharose) incubated with GST-Rho GDI, anti-GST blot
T2 construct: also called FLAG-tagged p75; FLAG-p75; not shown: FLAG tag
T2 sequence: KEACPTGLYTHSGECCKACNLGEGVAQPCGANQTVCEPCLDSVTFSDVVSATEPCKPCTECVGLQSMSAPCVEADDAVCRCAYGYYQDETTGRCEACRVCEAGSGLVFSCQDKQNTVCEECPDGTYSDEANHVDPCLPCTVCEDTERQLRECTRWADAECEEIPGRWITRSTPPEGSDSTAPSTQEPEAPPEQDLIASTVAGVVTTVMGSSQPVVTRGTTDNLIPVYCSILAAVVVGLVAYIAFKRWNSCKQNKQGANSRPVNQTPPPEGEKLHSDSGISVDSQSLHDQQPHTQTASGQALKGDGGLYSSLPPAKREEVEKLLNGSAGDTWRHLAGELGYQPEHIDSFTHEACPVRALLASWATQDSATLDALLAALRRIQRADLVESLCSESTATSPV

- binding result [1]: binds
B1: Rho GDI, endogenous in mouse post-natal cerebellar neurons (other, UniProt Q99PT1 2-204, looked up)
chain: AEQEPTAEQLAQIAAENEEDEHSVNYKPPAQKSIQEIQELDKDDESLRKYKEALLGRVAVSADPNVPNVIVTRLTLVCSTAPGPLELDLTGDLESFKKQSFVLKEGVEYRIKISFRVNREIVSGMKYIQHTYRKGVKIDKTDYMVGSYGPRAEEYEFLTPMEEAPKGMLARGSYNIKSRFTDDDKTDHLSWEWNLTIKKEWKD

Binder: B2
- binding result [2]: binds

- binding result [3]: binds
B3: recombinant human GST-Rho GDI (other)
chain: MAEQEPTAEQLAQIAAENEEDEHSVNYKPPAQKSIQEIQELDKDDESLRKYKEALLGRVAVSADPNVPNVVVTGLTLVCSSAPGPLELDLTGDLESFKKQSFVLKEGVEYRIKISFRVNREIVSGMKYIQHTYRKGVKIDKTDYMVGSYGPRAEEYEFLTPVEEAPKGMLARGSYSIKSRFTDDDKTDHLSWEWNLTIKKDWKD
notes: Bought (Cytoskeleton); also called recombinant Rho GDI; not shown: glutathione S-transferase (GST) fusion moiety
